B1: M1D2 (antibody, V domains shown)
VH: QVQLQESGPGLVKPSGTLSLTCTVSGGSVNSDHWWTWVRQSPETGLEWIGELNHIGTFNYNPSFKSRATISIDTSKNQFSLTLTSVAAADTAVYYCARRPPPLPEYFYYYFMDVWGNGTTVTVSS
VL: DIQMTQSPSSLSASVGDRVTITCRTSQSIRGHINWYQQKPGKGPKLLIYGASSLQSGVPSRFSGSGSGTDFTLTISSLQAEDFATYYCQQSYSNPYSFGRGTKLEIKR
B2: M1C7s (antibody, V domains shown)
VH: QVQLVQSGPEVRKPGSSVRVSCKASGGTFTRLTITWVRQAPGQGLEWMGRIIPAVDITNYAPKFQGRVTITADKSTGAVYMDLISLTSDDTAIYFCATVLDWSNALDIWGQGTMVTVSS
VL: DIVMTQTPLSLSVTPGQPASISCKSSESLLNSDGKTYLFWYLQKPGQSPQVLIYDLSSRFSGVPERFSGSGSGTDFTLKISRVEPEDVGIYYCMQGLHLPWTFGRGTRLEIKR
B3: M1C7 (antibody, V domains shown)
VH: QVQLVESGGGLVQPGRSLRLSCAASGFTFSSYAMHWVRQAPGKGLEWVAIITYDGSGKYYADSLEGRITISRDDPKSMLYLHMRSLTAEDTAVYYCVKSGSFSSAFWLEDWGQGTLVTVSS
VL: EIVLTQSPATLSLSPGERATLSCRASQSISNFVAWYQQKPGQAPRLLIYDASNGATGTPARFSGSGSGTDFTLTISSLEPEDFAVYYCQQRSTWTFGQGTKVEIKR
B4: M1A08 (antibody, V domains shown)
VH: QVQLVQSGAEVKKPGASVKVSCKASGVTLTDYYFHWIRQAPGQALEWMGRINPARGGTHYAEKFEDRVTMTTDTSTNTVYMDLSSLRSDDTAVYYCARSGSTHNIYSGFYAFDHWGQGTLVTVSS
VL: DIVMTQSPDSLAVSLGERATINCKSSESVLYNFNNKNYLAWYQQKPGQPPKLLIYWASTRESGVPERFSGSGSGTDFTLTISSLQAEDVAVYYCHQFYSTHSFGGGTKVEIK
B5: M4B11 (antibody, V domains shown)
VH: QVQLVQSGTEVQTPGASVKVSCKTSGYIFTGYFMHWVRQAPGQGFEWMGWVNPYSGATTYAQKFQGRVTMTRDTSISTVYMELSRLTSDDTAIYYCAKDTSNSGPDLLEHWGQGTLVIVSS
VL: EIVLTQSPATLSLSPGERATLSCRASQSISNFLVWYQRKPGQAPRLLIFDVSKRATGIPTRFSGSGSGTDFTLTISSLEPEDFAVYYCQQRSNWPPGYTFGQGTKLEIK
B6: M2B6 (antibody, V domains shown)
VH: QVQLQESGPGLVKPSETLSLTCSVSGASIGGYYWGWIRQPPGKGLEWLGYIYYSGRTVYSPSLRGRLALSLDMSRQQLSLRLRSVAAADTAVYYCASLTITPGWFDSWGPGTLVTVSS
VL: QSVLTQPPSVSGAPGQRVTISCTGSSSNIGAGYDVHWYQQFPGSAPKLLIYGNTKRPSGVPDRFSGSTSGSSASLAITGLQTEDEAEYYCQSYERNLDGALFGGGTKLSVL
B7: M3D04 (antibody, V domains shown)
VH: EVQLVESGGDLVEPGGSLRLSCAASGFTFESAWMSWVRQAPGKGLEWVGRIKSKLDHGTTDYAAPVKGRFTLSRDDSKNTLFLQMNNLKTEDTGVYYCATDRSDVRFLEWLGNYQFGMDVWGQGTTVAVSS
VL: EIVLTQSPGTLSLSPGERATLSCRASHSVSSSYLAWYQQKPGQAPRLLIFGASSRATGIPDRFSGSGSGTDFTLTISRLEPEDFAVYYCQQYLTSPPGWTFGQGTKVEIK

The first assay deals with F protein of hMPV A virus (human metapneumovirus subtype A). As to the kind of experiment: cell-based or functional assay.
Consider B1, for which the “PRNT IC50” value turned out to be 0.0117 µg/mL.

For B2, the “PRNT IC50” value was determined as 0.015 µg/mL.

With B3, the “PRNT IC50” value came out at 0.0083 µg/mL.

With B4, the “PRNT IC50” value stood at 2.27 µg/mL.

Take B5: the “PRNT IC50” value stood at 0.652 µg/mL.

For the molecule B6, the “PRNT IC50” value was found to be 0.044 µg/mL.

Take B7: the “PRNT IC50” value is 0.2 µg/mL.

The target of another assay is F protein of hMPV B virus (human metapneumovirus subtype B). As to the kind of experiment: cell-based or functional assay.
Take B1: the “PRNT IC50” value is 0.0124 µg/mL.

Consider B2, for which the “PRNT IC50” value amounted to 0.0092 µg/mL.

Regarding B3, the “PRNT IC50” value came out at 0.0085 µg/mL.

Turning to B4, the “PRNT IC50” value was 0.72 µg/mL.

Consider B5, for which the “PRNT IC50” value was found to be 0.238 µg/mL.

For the molecule B6, the “PRNT IC50” value turned out to be 0.0237 µg/mL.

In the case of B7, the “PRNT IC50” value was 0.327 µg/mL.

Another assay addresses F protein of RSV B/Washington virus (respiratory syncytial virus B, …). As to the kind of experiment: cell-based or functional assay.
For B3, the “PRNT IC50” value was 1.1 µg/mL.

For the molecule B6, the “PRNT IC50” value was found to be 0.0092 µg/mL.

For the origin of these results see patent publication US20240327502A1 (Merck Sharp & Dohme, published 2024).
